According to patent publication US9340582B2, “Bioconjugates of synthetic apelin polypeptides” (NOVARTIS AG, priority 2013, dated 2016):
pEC50: −log10 of the molar value. Bridge positions count the residues as written; N and C are the ends. Square brackets hold non-standard residues; d marks the D form. * marks the point of attachment. Propanoyl(3-maleimido) = O=C1C=CC(=O)N1CCC(=O)*; Nle = CCCC[C@H](N)C(=O)O; AEEA = NCCOCCOCC(=O)O

Assays:
[1] = Surrogate activity-based plasma stability assay; conditions: for Surrogate activity-based Plasma stability t½: Table 2
hAPJ = molecular target: T1, hAPJ (Homo sapiens, UniProt P35414); assay: hAPJ Calcium Flux Assay; assay type: cell-based; conditions: Chem-5 APJ stable cells, FLIPR calcium flux; read-out: hAPJ Ca^2+ Flux EC50
T1 sequence (P35414 1-380): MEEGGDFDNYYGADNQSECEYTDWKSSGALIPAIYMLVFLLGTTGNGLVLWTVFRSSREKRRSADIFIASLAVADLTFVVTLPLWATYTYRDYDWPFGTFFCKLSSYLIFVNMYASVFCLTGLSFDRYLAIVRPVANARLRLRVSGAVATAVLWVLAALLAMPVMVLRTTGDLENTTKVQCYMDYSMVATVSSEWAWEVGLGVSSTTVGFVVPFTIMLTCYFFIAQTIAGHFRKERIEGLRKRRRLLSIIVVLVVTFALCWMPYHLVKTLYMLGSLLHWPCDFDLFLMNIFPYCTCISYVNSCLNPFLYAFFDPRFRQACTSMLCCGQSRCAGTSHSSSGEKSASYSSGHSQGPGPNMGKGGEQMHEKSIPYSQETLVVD
Experimental: Chem-5 APJ stable cells (Millipore #HTS068C) were plated in 384-well format with 10,000 cells/well in 25 ul growth media, then grown 24 hours in a 37° C. tissue culture incubator. One hour before the assay, 25 ul/well FLIPR Calcium 4 dye (Molecular Devices R8142) with 2.5 mM probenecid was added, and cells were incubated one hour in a 37° C. tissue culture incubator. Bioconjugates were solubilized in HBSS, HEPES & 0.1% BSA buffer, and serially-diluted 10-fold, from 50 uM to 5 pM, in triplicate. FLIPR Tetra was used to add bioconjugates to the cells with dye (1:5, for final bioconjugate concentrations ranging from 10 uM to 1 pM). FLIPR dye inside the cells emitted fluorescence after binding to calcium, while fluorescence from outside the cells was masked. […] Readings were done for 3 minutes total, beginning 10 seconds before the bioconjugate addition. Maximum-minimum values were calculated and plotted for each bioconjugate concentration, and GraphPad prism software was used to calculate EC50 values at the curve inflection points, for calcium flux stimulation by bioconjugates.

[2] = Plasma Stability Assay (LC-MS); assay type: in vitro ADME; conditions: Table 3, rat plasma, 37° C.
Experimental: • Materials: • Working solution: 1 mg/mL test article is prepared in Milli-Q water • Extraction solution: Methanol:Acetonitrile:Water (1:1:1) with 0.1% Formic Acid and 400 ng/mL Glyburide. • Plasma: Male Sprague-Dawley rat plasma (with sodium heparin), purchased from Bioreclamation LLC (Liverpool, N.Y.). • Whole blood: Male Sprague Dawley whole blood (with sodium heparin), purchased from Bioreclamation LLC (Liverpool, N.Y.) • Lung homogenate: Male rat Sprague Dawley lung was purchased from Bioreclamation LLC (Liverpool, N.Y.). The lung was homogenized using polytron homogenizer after addition of 5× volume of 1×PBS. The homogenate was centrifuged at 9000 rpm for 10 min at 4° C. The supernatant was centrifuged again at 3000 rpm for 30 min to make a clear supernatant. Protein concentration was determined using a commercial kit (Pierce, Thermo Scientific). Sample Preparation Procedure: (peptides)
Test article was prepared in one of the following biological matrices: heparinized rat plasma, heparinized rat whole blood or lung homogenate. The plasma and whole blood sample was prepared at 5000 ng/mL by adding 5 uL of 1 mg/mL Working solution to 995 uL of rat plasma or whole blood. […]

Albumin-MPA-NHCH2CH2CH2−OCH2CH2OCH2CH2O-CH2CH2CH2NH-C(O)CH2CH2C═O-A-R-P-R-L-S-H-K-G-P-Nle-P-F-OH (ARPRLSHKGPLPF; albumin-MPA linker conjugate; Nle residue) [Example 3]
Surrogate activity-based Plasma stability t½ [1]: 0.405 h
pEC50 (hAPJ): 7.28

Albumin-MPA-O2Oc-O2Oc-O2Oc-O2Oc-Q-R-P-R-L-C*-H-F-G-P-Nle-C*-f-OH ({albumin-Propanoyl(3-maleimido)}-[AEEA][AEEA][AEEA][AEEA]QRPRLCHFGP[Nle]C[dF]-OH; disulfide 10-16; also: albumin conjugate) [Example 1]
pEC50 (hAPJ): 7.33

Albumin-MPA-O2Oc-O2Oc-O2Oc-O2Oc-Q-R-P-R-L-C*-H-F-G-P-Nle-C*-f-OH [Example 1]
Surrogate activity-based Plasma stability t½ [1]: >16.67 h

Albumin-TPA-O2Oc-O2Oc-O2Oc-O2Oc-Q-R-P-R-L-C*-H-F-G-P-Nle-C*-f-OH [Example 2]
Surrogate activity-based Plasma stability t½ [1]: >16.67 h
Surrogate Activity based Plasma stability t½ ([1]; Table 3): >16.67 h
Plasma stability t½ [2]: ~24 h
pEC50 (hAPJ): 7.03

Example 4: Fc-Apelin fusion SEQ ID NO: 98; linker GGGGSGGGGS, polypeptide QRPRLSHKGPMPF
Surrogate activity-based Plasma stability t½ [1]: 3.53 h

Example 5: Fc-Apelin fusion SEQ ID NO: 99; linker GGGGSGGGGSGGGGS, polypeptide QRPRLSHKGPMPF
Surrogate activity-based Plasma stability t½ [1]: 5.57 h
